*1 amine or outer side, *2 acyl side, *3 side chain or, on linkers, in order; H or OH if unused. Side-chain parts run from the residue outwards. The star is where a group is joined. C18 diacid = O=C(O)CCCCCCCCCCCCCCCCC(=O)*; γGlu = O=C(O)[C@H](CCC(=O)[*:2])N[*:1]; Isovaleryl = CC(C)CC(=O)*; Ahx = NCCCCCC(=O)O
T1: human NPY2 receptor (human, UniProt P49146 1-381)
T1 construct: whole, on cells; also called hNPY2-R; hNPY2R
T1 sequence (looked up): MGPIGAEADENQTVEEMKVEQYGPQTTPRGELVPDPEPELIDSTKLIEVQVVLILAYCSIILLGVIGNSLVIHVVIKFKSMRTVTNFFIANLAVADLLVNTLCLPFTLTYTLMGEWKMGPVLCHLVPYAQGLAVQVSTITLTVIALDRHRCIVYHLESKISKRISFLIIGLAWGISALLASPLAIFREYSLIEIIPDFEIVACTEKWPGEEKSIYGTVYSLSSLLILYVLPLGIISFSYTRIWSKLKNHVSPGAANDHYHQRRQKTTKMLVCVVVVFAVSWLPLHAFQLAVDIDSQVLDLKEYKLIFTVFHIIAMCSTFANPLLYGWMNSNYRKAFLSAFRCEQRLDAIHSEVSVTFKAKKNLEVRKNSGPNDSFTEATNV


Biological target: T1, human NPY2 receptor
Experiment: RLB: displacement of 125I-PYY(1-36) from hNPY2R membranes
Method: The filtration RLB assay was carried out in 96-well plates in a final volume of 100 μl per well. Freeze-dried test peptides were dissolved in 100% dimethyl sulfoxide (DMSO) to stock solutions of 1 mM and serial dilutions were performed in assay buffer (50 mM HEPES, 5 mM MgCl₂, 1 mM CaCl₂), pH 7.4) containing 0.2% ovalbumin. […] Next, 80 μL membranes (HTS066M, ChemiSCREEN™ Human Neuropeptide Y2 Receptor Membrane Preparation, CHEMICON) were added to each well to give a final protein concentration of 0.5 μg/well. The plates were sealed and incubated at room temperature for 2 hours in a plate shaker set at 400 rpm. The incubation was stopped by vacuum filtration onto 0.5% polyethylene amine (PEI) presoaked GF/C filters using a 96-well FilterMate™ harvester (Perkin Elmer) followed by four washes with 300 μl/well ice-cold wash buffer (50 mM HEPES, 500 mM NaCl, pH7.4). Filter plates were then dried for 60 min at room temperature and the bottom of the plates was sealed with backing tape UniFilter-96. Finally, 50 μl/well scintillation counter cocktail (Microscint20, Packard) was added and the radioactivity was counted in the Packard TopCount NXT scintillation counter. IC₅₀ values (the half maximal inhibitory concentration of the agonist) were calculated by nonlinear regression analysis of sigmoidal dose-response curves.

Row | Binder | Ki
1 | Isovaleryl-APEK([Ahx-γGlu-C18 diacid])PEEDATPEELQRYYVSLRHYYNWLTRQRY-NH2 (SMILES CC(C)CC(=O)N[C@@H](C)C(=O)N1CCC[C@H]1C(=O)N[C@@H](CCC(=O)O)C(=O)N[C@@H](CCCCNC(=O)CCCCCNC(=O)CC[C@H](NC(=O)CCCCCCCCCCCCCCCCC(=O)O)C(=O)O)C(=O)N1CCC[C@H]1C(=O)N[C@@H](CCC(=O)O)C(=O)N[C@@H](CCC(=O)O)C(=O)N[C@@H](CC(=O)O)C(=O)N[C@@H](C)C(=O)N[C@H](C(=O)N1CCC[C@H]1C(=O)N[C@@H](CCC(=O)O)C(=O)N[C@@H](CCC(=O)O)C(=O)N[C@@H](CC(C)C)C(=O)N[C@@H](CCC(N)=O)C(=O)N[C@@H](CCCNC(=N)N)C(=O)N[C@@H](Cc1ccc(O)cc1)C(=O)N[C@@H](Cc1ccc(O)cc1)C(=O)N[C@H](C(=O)N[C@@H](CO)C(=O)N[C@@H](CC(C)C)C(=O)N[C@@H](CCCNC(=N)N)C(=O)N[C@@H](Cc1c[nH]cn1)C(=O)N[C@@H](Cc1ccc(O)cc1)C(=O)N[C@@H](Cc1ccc(O)cc1)C(=O)N[C@@H](CC(N)=O)C(=O)N[C@@H](Cc1c[nH]c2ccccc12)C(=O)N[C@@H](CC(C)C)C(=O)N[C@H](C(=O)N[C@@H](CCCNC(=N)N)C(=O)N[C@@H](CCC(N)=O)C(=O)N[C@@H](CCCNC(=N)N)C(=O)N[C@@H](Cc1ccc(O)cc1)C(N)=O)[C@@H](C)O)C(C)C)[C@@H](C)O) [Compound 173] | 4.07 nM
2 | Isovaleryl-APAK([Ahx-γGlu-C18 diacid])PEADAEPEELQRYYVALRHYYNWLTRQRY-NH2 (SMILES CC(C)CC(=O)N[C@@H](C)C(=O)N1CCC[C@H]1C(=O)N[C@@H](C)C(=O)N[C@@H](CCCCNC(=O)CCCCCNC(=O)CC[C@H](NC(=O)CCCCCCCCCCCCCCCCC(=O)O)C(=O)O)C(=O)N1CCC[C@H]1C(=O)N[C@@H](CCC(=O)O)C(=O)N[C@@H](C)C(=O)N[C@@H](CC(=O)O)C(=O)N[C@@H](C)C(=O)N[C@@H](CCC(=O)O)C(=O)N1CCC[C@H]1C(=O)N[C@@H](CCC(=O)O)C(=O)N[C@@H](CCC(=O)O)C(=O)N[C@@H](CC(C)C)C(=O)N[C@@H](CCC(N)=O)C(=O)N[C@@H](CCCNC(=N)N)C(=O)N[C@@H](Cc1ccc(O)cc1)C(=O)N[C@@H](Cc1ccc(O)cc1)C(=O)N[C@H](C(=O)N[C@@H](C)C(=O)N[C@@H](CC(C)C)C(=O)N[C@@H](CCCNC(=N)N)C(=O)N[C@@H](Cc1c[nH]cn1)C(=O)N[C@@H](Cc1ccc(O)cc1)C(=O)N[C@@H](Cc1ccc(O)cc1)C(=O)N[C@@H](CC(N)=O)C(=O)N[C@@H](Cc1c[nH]c2ccccc12)C(=O)N[C@@H](CC(C)C)C(=O)N[C@H](C(=O)N[C@@H](CCCNC(=N)N)C(=O)N[C@@H](CCC(N)=O)C(=O)N[C@@H](CCCNC(=N)N)C(=O)N[C@@H](Cc1ccc(O)cc1)C(N)=O)[C@@H](C)O)C(C)C) [Compound 3] | 1.57 nM
3 | Isovaleryl-APEK([Ahx-γGlu-C18 diacid])PEEAAEPEELQRYYVSLRHYYNWLTRQRY-NH2 (SMILES CC(C)CC(=O)N[C@@H](C)C(=O)N1CCC[C@H]1C(=O)N[C@@H](CCC(=O)O)C(=O)N[C@@H](CCCCNC(=O)CCCCCNC(=O)CC[C@H](NC(=O)CCCCCCCCCCCCCCCCC(=O)O)C(=O)O)C(=O)N1CCC[C@H]1C(=O)N[C@@H](CCC(=O)O)C(=O)N[C@@H](CCC(=O)O)C(=O)N[C@@H](C)C(=O)N[C@@H](C)C(=O)N[C@@H](CCC(=O)O)C(=O)N1CCC[C@H]1C(=O)N[C@@H](CCC(=O)O)C(=O)N[C@@H](CCC(=O)O)C(=O)N[C@@H](CC(C)C)C(=O)N[C@@H](CCC(N)=O)C(=O)N[C@@H](CCCNC(=N)N)C(=O)N[C@@H](Cc1ccc(O)cc1)C(=O)N[C@@H](Cc1ccc(O)cc1)C(=O)N[C@H](C(=O)N[C@@H](CO)C(=O)N[C@@H](CC(C)C)C(=O)N[C@@H](CCCNC(=N)N)C(=O)N[C@@H](Cc1c[nH]cn1)C(=O)N[C@@H](Cc1ccc(O)cc1)C(=O)N[C@@H](Cc1ccc(O)cc1)C(=O)N[C@@H](CC(N)=O)C(=O)N[C@@H](Cc1c[nH]c2ccccc12)C(=O)N[C@@H](CC(C)C)C(=O)N[C@H](C(=O)N[C@@H](CCCNC(=N)N)C(=O)N[C@@H](CCC(N)=O)C(=O)N[C@@H](CCCNC(=N)N)C(=O)N[C@@H](Cc1ccc(O)cc1)C(N)=O)[C@@H](C)O)C(C)C) [Compound 4] | 4.65 nM

Further binders by falling Ki, results first:

Row | Ki | Binder
4 | 12.7 nM | Isovaleryl-APAK([Ahx-γGlu-C18 diacid])PEEDASPEELQRQYVSLRHYYNWLTRQRY-NH2 (SMILES CC(C)CC(=O)N[C@@H](C)C(=O)N1CCC[C@H]1C(=O)N[C@@H](C)C(=O)N[C@@H](CCCCNC(=O)CCCCCNC(=O)CC[C@H](NC(=O)CCCCCCCCCCCCCCCCC(=O)O)C(=O)O)C(=O)N1CCC[C@H]1C(=O)N[C@@H](CCC(=O)O)C(=O)N[C@@H](CCC(=O)O)C(=O)N[C@@H](CC(=O)O)C(=O)N[C@@H](C)C(=O)N[C@@H](CO)C(=O)N1CCC[C@H]1C(=O)N[C@@H](CCC(=O)O)C(=O)N[C@@H](CCC(=O)O)C(=O)N[C@@H](CC(C)C)C(=O)N[C@@H](CCC(N)=O)C(=O)N[C@@H](CCCNC(=N)N)C(=O)N[C@@H](CCC(N)=O)C(=O)N[C@@H](Cc1ccc(O)cc1)C(=O)N[C@H](C(=O)N[C@@H](CO)C(=O)N[C@@H](CC(C)C)C(=O)N[C@@H](CCCNC(=N)N)C(=O)N[C@@H](Cc1c[nH]cn1)C(=O)N[C@@H](Cc1ccc(O)cc1)C(=O)N[C@@H](Cc1ccc(O)cc1)C(=O)N[C@@H](CC(N)=O)C(=O)N[C@@H](Cc1c[nH]c2ccccc12)C(=O)N[C@@H](CC(C)C)C(=O)N[C@H](C(=O)N[C@@H](CCCNC(=N)N)C(=O)N[C@@H](CCC(N)=O)C(=O)N[C@@H](CCCNC(=N)N)C(=O)N[C@@H](Cc1ccc(O)cc1)C(N)=O)[C@@H](C)O)C(C)C) [Compound 5]
5 | 2.05 nM | Isovaleryl-APEK([Ahx-γGlu-C18 diacid])PEADAEPEELQRYYIALRHYYNWLTRQRY-NH2 (SMILES CC[C@H](C)[C@H](NC(=O)[C@H](Cc1ccc(O)cc1)NC(=O)[C@H](Cc1ccc(O)cc1)NC(=O)[C@H](CCCNC(=N)N)NC(=O)[C@H](CCC(N)=O)NC(=O)[C@H](CC(C)C)NC(=O)[C@H](CCC(=O)O)NC(=O)[C@H](CCC(=O)O)NC(=O)[C@@H]1CCCN1C(=O)[C@H](CCC(=O)O)NC(=O)[C@H](C)NC(=O)[C@H](CC(=O)O)NC(=O)[C@H](C)NC(=O)[C@H](CCC(=O)O)NC(=O)[C@@H]1CCCN1C(=O)[C@H](CCCCNC(=O)CCCCCNC(=O)CC[C@H](NC(=O)CCCCCCCCCCCCCCCCC(=O)O)C(=O)O)NC(=O)[C@H](CCC(=O)O)NC(=O)[C@@H]1CCCN1C(=O)[C@H](C)NC(=O)CC(C)C)C(=O)N[C@@H](C)C(=O)N[C@@H](CC(C)C)C(=O)N[C@@H](CCCNC(=N)N)C(=O)N[C@@H](Cc1c[nH]cn1)C(=O)N[C@@H](Cc1ccc(O)cc1)C(=O)N[C@@H](Cc1ccc(O)cc1)C(=O)N[C@@H](CC(N)=O)C(=O)N[C@@H](Cc1c[nH]c2ccccc12)C(=O)N[C@@H](CC(C)C)C(=O)N[C@H](C(=O)N[C@@H](CCCNC(=N)N)C(=O)N[C@@H](CCC(N)=O)C(=O)N[C@@H](CCCNC(=N)N)C(=O)N[C@@H](Cc1ccc(O)cc1)C(N)=O)[C@@H](C)O) [Compound 1]

Source: patent US20260015399A1 (Boehringer Ingelheim, published 2026)
